Measured values as given in the supplement of paper PMC10567573.

B1: PLAGL1 (parent)
chain: EKPPSGTKEKKHQCDHCERCFYTR
B2: RIPK4 (parent)
chain: AAWQGHLPIVKLLAKQPGVSVNAQ

Variants of: B1
Experiment: protein stability index of a GFP-peptide fusion (GPS, HEK-293T) (PSI 1-6); higher = more stable
Settings: c terminus: a fixed tail appended
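Also: lentivirally expressed fusions sorted by FACS into six bins by GFP to DsRed ratio, PSI derived from sequencing read proportions per bin multiplied by bin number.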

Protein stability index: each site, then its substitutions
R24: Y 3.96; E 4.67; D 5.07; H 4.67; Q 5.28; V 4.07; F 4.35; T 4.93; L 4.29; A 4.68; C 4.61; W 4.29; G 4.24; S 4.33; P 4.9; M 4.68; N 4.55; K 4.74; I 4.37
R19: W 3.29; P 3.3; C 3.3; E 4.54; S 3.9; Y 3.79; L 3.45; A 4.31; K 4; Q 4.34; H 4.21; M 3.83; F 3.69; V 3.39; I 3.52; D 4.91; N 4.36; G 3.24; T 3.52
Y22: C 4.84; N 4.22; T 3.89; G 4.03; L 4.35; H 4.13; S 4.17; W 3.18; A 4.25; K 4.45; E 4.67; Q 4.21; R 4.3; P 4.05; M 4.37; D 4.58; V 3.69; F 3.35; I 4.17
T23: F 3.97; M 4.34; I 4.03; Q 4.01; W 4.12; R 3.4; S 3.79; P 3.64; G 4.1; H 3.86; V 4.11; C 4.64; D 4.63; A 3.89; L 4.64; N 2.86; Y 3.83; E 5.09; K 3.99
C20: N 2.6; Y 2.66; E 3.37; G 2.5; F 2.56; V 3.06; H 2.58; D 2.59; K 3.58; Q 2.37; M 2.23; T 3.04; L 2.95; S 1.74; P 3.07; W 2.35; A 2.48; R 1.98; I 2.68
E18: S 2.42; T 3.62; V 4.66; Y 2.92; W 3.41; R 2.79
F21: S 4.22; L 4.08; A 4.06; K 4.39; Q 5.02; I 4.52; T 4.26; H 3.51; C 3.88; D 4.34; M 4.75; P 3.75; E 4.11; V 3.95; N 4.33; R 4.15; G 4.32; Y 4.37

Variants of: B2
Experiment: as above
Settings: c terminus: a fixed tail appended

Protein stability index: each site, then its substitutions
A2: I 1.66; H 2.8; R 2.72; Q 2.62; G 2.27; C 2.19; M 2.73; T 3.11; N 3.16; L 2.38; E 2.69; K 2.37; P 3.69; D 3.76; F 2.15; Y 2.12; S 2.25
A1: L 1.05; P 2.81; K 2.25; M 1.98; N 2.35; H 2.77; C 2.18; D 3.41; T 2.22; I 1.95; E 2.24; F 3.12; G 1.34; S 2.56
W3: D 3.85; G 2.91; C 3.78; I 3.07; S 3.65; L 2.42; T 3.56; M 3.88; Q 3.5; H 3.06; F 2.97; N 3.29; R 2.98; E 3.63; K 3.21; A 3.2; P 3.82
